For assay [1], the target named is 人源CD47 (on cells: hCD47-overexpressing CHO-K1; Raji) (human) (UniProt Q08722). The assay can be described thus: flow cytometry on Raji cells (endogenous human CD47); Blank 58.3. In general terms: In flow cytometry, cells or beads pass a laser one at a time.
The target of assay [2] is 食蟹猴CD47 (on overexpressing CHO-K1 cells) (cynomolgus monkey). Nature of the assay: flow cytometry, purified antibody 10 ug/ml on CHO-K1 overexpressing cynomolgus CD47.
The target of assay [3] is 人源CD47 (on cells: hCD47-overexpressing CHO-K1; Raji) (human) (UniProt Q08722). The assay can be described thus: flow cytometry, purified antibody 10 ug/ml on CHO-K1 overexpressing human CD47.
Assay [4] deals with 生物素化人源CD47蛋白 (购自Acro Biosystem) (human) (UniProt Q08722). The assay can be described thus: phage ELISA; biotinylated human CD47 on streptavidin plate; ratio of experiment to control. On the technique in general: ELISA stands for enzyme-linked immunosorbent assay.
In assay [5] the target is 人源CD47 (on cells: hCD47-overexpressing CHO-K1; Raji) (human) (UniProt Q08722). The assay can be described thus: flow cytometry, phage supernatant on CHO-K1 overexpressing human CD47, anti-M13 then fluorescent secondary.
Assay [6] has as its target 食蟹猴CD47 (on overexpressing CHO-K1 cells) (cynomolgus monkey). The assay can be described thus: flow cytometry, phage supernatant on CHO-K1 overexpressing cynomolgus CD47, anti-M13 then fluorescent secondary.
Assay [7] deals with 人源CD47 (on cells: hCD47-overexpressing CHO-K1; Raji) (human) (UniProt Q08722). Nature of the assay: flow cytometry, phage supernatant; MFI on human CD47 CHO-K1 over MFI on wild-type CHO-K1.
Assay [8] has as its target 食蟹猴CD47 (on overexpressing CHO-K1 cells) (cynomolgus monkey). The assay can be described thus: flow cytometry, phage supernatant; MFI on cynomolgus CD47 CHO-K1 over MFI on wild-type CHO-K1.
Assay [9] concerns the target 生物素化人源CD47蛋白 (购自Acro Biosystem) (human) (UniProt Q08722). The assay can be described thus: phage ELISA; biotinylated human CD47 on streptavidin plate, phage supernatant, HRP anti-M13.

B1: 人源化抗体ID 4 (antibody, human IgG4 S228P, kappa, V domains shown)
VH: QVQLVQSGAEVKKPGASVKVSCKASGYTFTSYWMNWVRQAPGQGLEWMGRIDSSDSETHYNQKFKDRVTMTRDTSTSTVYMELSSLRSEDTAVYYCARQGEGLRRSWFPYWGQGTLVTVSS
VL: DIVMTQSPDSLAVSLGERATINCRASKSVSTSGYSYIHWYQQKPGQPPKLLIYVASNLQSGVPDRFSGSGSGTDFTLTISSLQAEDVAVYYCQHIRELPWTFGQGTKVEIKR
B1: the MFI came out at 14200 MFI in assay [1], 786 MFI in assay [2] and 2040 MFI in [3].

B2: 单克隆抗体ID 1 (phage粗培液, phage-displayed) (antibody, V domains shown)
VH: QVQLQQPGAELVKPGAPVKLSCKASGYTFTSYWMNWVKQRPGRGLEWIGRIDSSDSETHYNQKFKDKATLTVDKSSSTAYIQLSSLTSEDSAVYYCARQGEGLRRSWFPYWGQGTLVIVSA
VL: DIVLTQSPASLAVSLGQRATISCRASKSVSTSGYSYIHWYQQKPGQPPKLLIYVASNLQSGVPARFSGSGSGTDFTLNIHPVEEEDAATYYCQHIRELPWTFGGGTKLEIK
Regarding B2, the 实验/对照 (OD450 ratio) in assay [4] was 50.6. The MFI in assay [5] stood at 18300 MFI; in assay [6], 14600 MFI. Moreover, in assay [7], the h-CHOK1/CHOK1 (MFI ratio to wild-type CHO-K1) came out at 13.4. Also, the c-CHOK1/CHOK1 (MFI ratio to wild-type CHO-K1) in [8] was found to be 10.7. The molecule further registered an OD450 (实验) in assay [9] of 2.84 OD450.

The record behind these values is patent CN116478288A.
